# Data reported in patent US9187525B2, “Methods of treating ophthalmic diseases using NPR-B agonists” (Shire Orphan Therapies GmbH, dated 2015).
# Numbered stars: 1 amine (or outer) side, 2 acyl side, 3 side chain; on linkers, the order of the positions; unused ones are H or OH. Square brackets hold non-standard residues; d marks the D form. Ends that are not written are not given here. * marks the point of attachment. AFL = (S)-2-((S)-3-amino-2-oxopyrrolidin-1-yl)-3-phenylpropanoic acid, O=C1[C@@H](N[*:1])CCN1[C@@H](Cc1ccccc1)C(=O)[*:2]; afL = (R)-2-((R)-3-amino-2-oxopyrrolidin-1-yl)-3-phenylpropanoic acid, O=C1[C@H](N[*:1])CCN1[C@H](Cc1ccccc1)C(=O)[*:2]; Pca = (2S,3R)-3-aminopyrrolidine-2-carboxylic acid, O=C([C@@H]1[C@H](N[*:3])CCN1[*:1])[*:2]; 779 = 2-((1S,2R,4R)-bicyclo[2.2.1]heptan-2-yl)acetic acid, O=C(C[C@H]1C[C@@H]2CC[C@H]1C2)*; Eal = rac-imidazolidine-2-carboxylic acid, O=C(C1N([*:1])CCN1[*:3])[*:2]; 3218 = (S)-2-cyclopentylhexanoic acid, CCCC[C@H](C(=O)*)C1CCCC1; Pro(trans-4-NH2) = O=C([C@@H]1C[C@@H](N[*:3])CN1[*:1])[*:2]; 785 = 2-phenethyl-benzoic acid, O=C(c1ccccc1CCc1ccccc1)*; Sni = (S)-nipecotic acid, O=C([C@H]1CCCN([*:1])C1)[*:2]; 6013 = (2-butoxy-ethoxy)-acetic acid, CCCCOCCOCC(=O)*; Gly(2-thienyl) = N[C@H](C(=O)O)c1cccs1; Propanoyl(3-cHex) = O=C(CCC1CCCCC1)*; Hydrocinnamoyl = O=C(CCc1ccccc1)*; Hyp = O=C(O)[C@@H]1C[C@@H](O)CN1; ES‑283‑049 = not defined here; NMeL = CN[C@@H](CC(C)C)C(=O)O; Decanoyl = CCCCCCCCCC(=O)*; Nle = CCCC[C@H](N)C(=O)O; Thz = O=C(O)[C@@H]1CSCN1; Api = NC1(C(=O)O)CCNCC1; Che = not defined here; leu = not defined here; NP = not defined here; Occ = octanoic acid
# B1: JAL-1657 (peptide)
# peptide: [Occ][Sni]F[leu][Nle][Hyp][NMeL]DP[Che]
# modifications: reading uncertain; also: printed as Occ-Sni-Phe-leu-Nle-Hyp-Nml-Asp-Pro-Che
# B2: JAL-1646 (peptide)
# peptide: [Occ][Sni]F[leu]L[Hyp][NMeL]D[ES‑283‑049]
# modifications: reading uncertain; also: printed as Occ-Sni-Phe-leu-Leu-Hyp-Nml-Asp-(ES-283-049)
# B3: JAL-1665 (peptide)
# peptide: [6013][Sni]F[leu]L[Hyp][NMeL]DRI-NH2
# modifications: reading uncertain; also: printed as 6013-Sni-Phe-leu-Leu-Hyp-Nml-Asp-Arg-Ile-NH2
# B4: JAL-1661 (peptide)
# peptide: [Hydrocinnamoyl][Sni]F[leu]L[Hyp][NMeL]DRI-NH2
# modifications: reading uncertain; also: printed as 1281-Sni-Phe-leu-Leu-Hyp-Nml-Asp-Arg-Ile-NH2
# B5: JAL-1660 (peptide)
# peptide: [785][Sni]F[leu]L[Hyp][NMeL]DRI-NH2
# modifications: reading uncertain; also: printed as 785-Sni-Phe-leu-Leu-Hyp-Nml-Asp-Arg-Ile-NH2
# B6: JAL-1637 (peptide)
# peptide: [Occ][afL][leu]L[Hyp][NMeL]DRI-NH2
# modifications: reading uncertain; also: printed as Occ-(afL)-leu-Leu-Hyp-Nml-Asp-Arg-Ile-NH2
# B7: JAL-1638 (peptide)
# peptide: [Occ][Sni]F[leu]L[Hyp][NMeL]D[Thz][Che]
# modifications: reading uncertain; also: printed as Occ-Sni-Phe-leu-Leu-Hyp-Nml-Asp-Eaz-Che
# B8: JAL-1668 (peptide)
# peptide: XGXFLLXXDRI
# HELM: PEPTIDE1{[O=C(CCc1ccccc1)[*:2]].G.[O=C([C@H]1CCCN([*:1])C1)[*:2]].F.[dL].L.[Hyp].[meL].D.R.I.[am]}$$$$V2.0
# SMILES: CC[C@H](C)[C@H](NC(=O)[C@H](CCCNC(=N)N)NC(=O)[C@H](CC(=O)O)NC(=O)[C@H](CC(C)C)N(C)C(=O)[C@@H]1C[C@@H](O)CN1C(=O)[C@H](CC(C)C)NC(=O)[C@@H](CC(C)C)NC(=O)[C@H](Cc1ccccc1)NC(=O)[C@H]1CCCN(C(=O)CNC(=O)CCc2ccccc2)C1)C(N)=O
# B9: JAL-1664 (peptide)
# peptide: [3218][Sni]F[leu]L[Hyp][NMeL]DRI-NH2
# modifications: reading uncertain; also: printed as 3218-Sni-Phe-leu-Leu-Hyp-Nml-Asp-Arg-Ile-NH2
# B10: JAL-1666 (peptide)
# peptide: [Decanoyl][Sni]F[leu]L[Hyp][NMeL]DRI-NH2
# modifications: reading uncertain; also: printed as 5587-Sni-Phe-leu-Leu-Hyp-Nml-Asp-Arg-Ile-NH2
# B11: JAL-1654 (peptide)
# peptide: [Occ][Sni]F[leu]L[Pro(trans-4-NH2)][NMeL]VP[Che]
# modifications: reading uncertain; also: printed as Occ-Sni-Phe-leu-Leu-Tap-Nml-Val-Pro-Che
# B12: JAL-1659 (peptide)
# peptide: [779][Sni]F[leu]L[Hyp][NMeL]DRI-NH2
# modifications: reading uncertain; also: printed as 779-Sni-Phe-leu-Leu-Hyp-Nml-Asp-Arg-Ile-NH2
# B13: JAL-1676 (peptide)
# peptide: [Occ][Sni]F[dL]L[Pro(trans-4-NH2)][NMeL][Gly(2-thienyl)]P[Che]
# modifications: reading uncertain; also: printed as Occ-Sni-Phe-leu-Leu-Tap-Nml-(BB726)-Pro-Che
# B14: JAL-1652 (peptide)
# peptide: [Occ][Sni]F[leu]L[Hyp][NMeL]EP[Che]
# modifications: reading uncertain; also: printed as Occ-Sni-Phe-leu-Leu-Hyp-Nml-Glu-Pro-Che
# B15: JAL-1669 (peptide)
# peptide: XXXFLLXXDRI
# HELM: PEPTIDE1{[O=C(CCc1ccccc1)[*:2]].[bAla].[O=C([C@H]1CCCN([*:1])C1)[*:2]].F.[dL].L.[Hyp].[meL].D.R.I.[am]}$$$$V2.0
# SMILES: CC[C@H](C)[C@H](NC(=O)[C@H](CCCNC(=N)N)NC(=O)[C@H](CC(=O)O)NC(=O)[C@H](CC(C)C)N(C)C(=O)[C@@H]1C[C@@H](O)CN1C(=O)[C@H](CC(C)C)NC(=O)[C@@H](CC(C)C)NC(=O)[C@H](Cc1ccccc1)NC(=O)[C@H]1CCCN(C(=O)CCNC(=O)CCc2ccccc2)C1)C(N)=O
# B16: JAL-1639 (peptide)
# peptide: [Occ][Sni]F[leu]L[Hyp][NMeL]D[Eal][Che]
# modifications: reading uncertain; also: printed as Occ-Sni-Phe-leu-Leu-Hyp-Nml-Asp-Eal-Che
# B17: JAL-1679 (peptide)
# peptide: [Occ][Sni]F[dL]L[Hyp][NMeL]D[Pca][Che]
# modifications: reading uncertain; also: printed as Occ-Sni-Phe-leu-Leu-Hyp-Nml-Asp-Pca-Che
# B18: JAL-0703 (peptide)
# peptide: {Propanoyl(3-cHex)}-[dA][dA]FGLKLDRI-NH2
# B19: JAL-1671 (peptide)
# peptide: [Occ][AFL][dL]L[Hyp][NMeL]DRI-NH2
# B20: JAL-1672 (peptide)
# peptide: [Occ][Sni]F[dL]L[Hyp][NMeL]D[Api][Che]
# modifications: reading uncertain; also: printed as Occ-Sni-Phe-leu-Leu-Hyp-Nml-Asp-Apc-Che
# B21: JAL-1673 (peptide)
# peptide: [Occ][Sni]F[dL]L[Hyp][NMeL][NP][Che]
# modifications: reading uncertain; also: printed as Occ-Sni-Phe-leu-Leu-Hyp-Nml-NP-Che
# Molecular target: T1, natriuretic peptide receptor-B (human)
# T1 chain: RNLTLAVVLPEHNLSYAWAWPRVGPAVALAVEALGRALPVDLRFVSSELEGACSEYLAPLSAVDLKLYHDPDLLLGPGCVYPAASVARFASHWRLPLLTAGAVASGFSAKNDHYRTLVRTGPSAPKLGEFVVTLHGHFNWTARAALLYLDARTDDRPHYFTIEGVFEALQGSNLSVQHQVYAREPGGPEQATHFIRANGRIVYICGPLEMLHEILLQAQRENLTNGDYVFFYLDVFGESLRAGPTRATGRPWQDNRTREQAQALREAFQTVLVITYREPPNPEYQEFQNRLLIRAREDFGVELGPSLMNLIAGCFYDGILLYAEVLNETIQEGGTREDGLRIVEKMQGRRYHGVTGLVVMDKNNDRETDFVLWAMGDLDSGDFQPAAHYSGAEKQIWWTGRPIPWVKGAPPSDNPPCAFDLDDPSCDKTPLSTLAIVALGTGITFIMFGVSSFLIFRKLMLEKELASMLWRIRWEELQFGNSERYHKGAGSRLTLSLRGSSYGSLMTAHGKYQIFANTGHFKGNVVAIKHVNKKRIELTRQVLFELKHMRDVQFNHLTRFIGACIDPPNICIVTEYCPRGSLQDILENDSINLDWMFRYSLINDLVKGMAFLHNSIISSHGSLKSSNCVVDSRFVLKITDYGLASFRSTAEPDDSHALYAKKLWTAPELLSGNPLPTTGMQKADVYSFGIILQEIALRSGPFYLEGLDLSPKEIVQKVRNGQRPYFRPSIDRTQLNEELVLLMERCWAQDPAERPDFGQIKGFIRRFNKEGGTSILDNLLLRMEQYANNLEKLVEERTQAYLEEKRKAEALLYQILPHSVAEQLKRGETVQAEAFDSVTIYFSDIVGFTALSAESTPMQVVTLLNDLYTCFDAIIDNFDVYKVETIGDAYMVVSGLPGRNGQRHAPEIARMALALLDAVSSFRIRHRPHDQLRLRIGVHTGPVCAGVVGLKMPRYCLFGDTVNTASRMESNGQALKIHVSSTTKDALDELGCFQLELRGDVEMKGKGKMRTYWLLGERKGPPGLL
# Experiment: cell-based or functional assay
row,Binder,"EC50 group, cGMP in GTM-3 cells"
1,B1,≤ 1 µM
2,B2,≤ 5 µM
3,B3,≤ 5 µM
4,B4,≤ 5 µM
5,B5,≤ 15 µM
6,B6,≤ 5 µM
7,B7,≤ 1 µM
8,B8,≤ 15 µM
9,B9,≤ 15 µM
10,B10,≤ 1 µM
11,B11,≤ 1 µM
12,B12,≤ 5 µM
13,B13,≤ 5 µM
14,B14,≤ 5 µM
15,B15,≤ 15 µM
16,B16,≤ 5 µM
17,B17,≤ 1 µM
18,B18,≤ 15 µM
19,B19,≤ 1 µM
20,B20,≤ 15 µM
21,B21,≤ 15 µM
